Values belong to the substance of their own block, whether it stands above or below them.
What was measured:
Assay in all cases: SEC; gel filtration chromatography of the Ni-NTA purified motif-foldon fusion proteins; trimer
[1] = target: 6xHis-(GPP)5GPKGER(GPP)5-foldon
[2] = target: 6xHis-(GPP)5GSQGEK(GPP)5-foldon (mouse | not stated)
[3] = target: 6xHis-(GPP)5GFQGEK(GPP)5-foldon

stoichiometry N [1]: 3
Substance: 6xHis-(GPP)5GPKGER(GPP)5-foldon (designed binder)

stoichiometry N [2]: 3
Substance: 6xHis-(GPP)5GSQGEK(GPP)5-foldon (designed binder)

stoichiometry N [3]: 3
Substance: 6xHis-(GPP)5GFQGEK(GPP)5-foldon (designed binder)

— publication PMC7960628
